# Data from PMC3854527.
# T1: Sub2p Y12S (Saccharomyces cerevisiae, UniProt Q07478 1-446, Y12S)
# T1 sequence: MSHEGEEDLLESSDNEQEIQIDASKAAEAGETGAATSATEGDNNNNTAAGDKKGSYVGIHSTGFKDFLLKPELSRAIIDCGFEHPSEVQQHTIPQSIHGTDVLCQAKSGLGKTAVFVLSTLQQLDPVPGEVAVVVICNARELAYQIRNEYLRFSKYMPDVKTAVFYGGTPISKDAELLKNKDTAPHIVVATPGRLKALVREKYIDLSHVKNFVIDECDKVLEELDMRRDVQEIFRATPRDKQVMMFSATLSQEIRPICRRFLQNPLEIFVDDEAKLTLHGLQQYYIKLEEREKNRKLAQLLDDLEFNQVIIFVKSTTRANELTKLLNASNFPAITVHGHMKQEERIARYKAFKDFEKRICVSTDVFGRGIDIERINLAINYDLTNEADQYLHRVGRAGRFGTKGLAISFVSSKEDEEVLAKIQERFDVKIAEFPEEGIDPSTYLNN
# T2: Sub2p wt (Saccharomyces cerevisiae, UniProt Q07478 1-446)
# T2 sequence: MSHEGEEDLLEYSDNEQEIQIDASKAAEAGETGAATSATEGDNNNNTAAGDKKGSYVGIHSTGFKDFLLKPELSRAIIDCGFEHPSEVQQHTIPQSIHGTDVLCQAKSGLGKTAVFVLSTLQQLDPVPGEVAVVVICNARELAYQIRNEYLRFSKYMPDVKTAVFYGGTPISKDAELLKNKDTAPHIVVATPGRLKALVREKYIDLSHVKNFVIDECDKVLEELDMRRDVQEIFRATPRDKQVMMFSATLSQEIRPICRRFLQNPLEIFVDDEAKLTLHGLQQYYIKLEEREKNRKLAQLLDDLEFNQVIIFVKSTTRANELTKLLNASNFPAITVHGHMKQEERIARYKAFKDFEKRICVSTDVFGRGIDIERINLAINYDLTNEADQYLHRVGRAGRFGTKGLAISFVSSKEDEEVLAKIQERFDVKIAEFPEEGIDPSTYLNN
# Tests used:
# Sub2p Y12S = biological target: T1, Sub2p Y12S; assay: EMSA
# Sub2p wt = biological target: T2, Sub2p wt; assay: EMSA
binder,measurement,setting,value
AGCACCGUAAAGC (ssRNA) [13-mer ssRNA],binding result,Sub2p Y12S,binds
same,binding result,Sub2p wt,binds
